Measured values reported in publication PMC3433786 (The EMBO Journal, 2012).

Experiments:
[1] = target: the molecule itself; assay: AUC
[2] = target: the molecule itself; assay: SEC-MALS
[3] = target: the molecule itself; assay: crystal structure

| Protein | binding result [2] | further results |
| --- | --- | --- |
| mouse stomatin domain (amino acids 86–213), stomatin^86–213 (domain or fragment, UniProt P54116 86-213, looked up) PSTDSLIKVDMRTISFDIPPQEVLTKDSVTISVDGVVYYRVQNATLAVANITNADSATRLLAQTTLRNALGTKNLSQILSDREEIAHHMQSTLDDATDDWGIKVERVEIKDVKLPVQLQRAMAAEAEA |  | Kd [1]: 37 µM |
| stomatin^86–213 R97D, L109D, L145D (domain or fragment, mouse, UniProt P54116 86-213, looked up) PSTDSLIKVDMDTISFDIPPQEVDTKDSVTISVDGVVYYRVQNATLAVANITNADSATRDLAQTTLRNALGTKNLSQILSDREEIAHHMQSTLDDATDDWGIKVERVEIKDVKLPVQLQRAMAAEAEA | binds |  |
| stomatin^86–213 T182W (domain or fragment, mouse, UniProt P54116 86-213, looked up) PSTDSLIKVDMRTISFDIPPQEVLTKDSVTISVDGVVYYRVQNATLAVANITNADSATRLLAQTTLRNALGTKNLSQILSDREEIAHHMQSTLDDAWDDWGIKVERVEIKDVKLPVQLQRAMAAEAEA | binds |  |
| stomatin^86–213 L109D,L145D (domain or fragment, mouse, UniProt P54116 86-213, looked up) PSTDSLIKVDMRTISFDIPPQEVDTKDSVTISVDGVVYYRVQNATLAVANITNADSATRDLAQTTLRNALGTKNLSQILSDREEIAHHMQSTLDDATDDWGIKVERVEIKDVKLPVQLQRAMAAEAEA | binds |  |
| stomatin^86–213 LI91,92AA (domain or fragment, mouse, UniProt P54116 86-213, looked up) PSTDSAAKVDMRTISFDIPPQEVLTKDSVTISVDGVVYYRVQNATLAVANITNADSATRLLAQTTLRNALGTKNLSQILSDREEIAHHMQSTLDDATDDWGIKVERVEIKDVKLPVQLQRAMAAEAEA |  | binding result [3]: binds |
